Substrate in assay [1]: SCS peptide, 1-pHis form
Nature of the assay: BLI; biotinylated pHis peptides (20 nM) on streptavidin biosensors, Fab in solution at varying concentrations; 50 mM Hepes pH 8.0, 150 mM NaCl, 0.05% Tween-20, 0.2% BSA; Octet RED96e; global fit to a 1:1 Langmuir model.

In assay [2] the target is T1, NM23 peptide, 1-pHis form.
T1 sequence (peptide, biotin on the N-terminus; C-terminal amide; 1-phosphohistidine at position 5): RNIIHGSDS
The description is as above.

For assay [3], the target named is T2, Common-His peptide, 1-pHis form.
T2 sequence (peptide, biotin on the N-terminus; C-terminal amide; 1-phosphohistidine at position 5): GEQLHDLNA
The description is as above.

In assay [4] the target is T3, ACLY peptide, 1-pHis form.
T3 sequence (peptide, biotin on the N-terminus; C-terminal amide; 1-phosphohistidine at position 5): VQFGHAGAC
Described as above.

In assay [5] the target is T4, ACLYana-1-pHis peptide (AGAG-1-pHis-AGAG).
T4 sequence (peptide, 1-phosphohistidine at position 5; biotin on the N-terminus): AGAGHAGAG
Description: BLI; N-terminally biotinylated peptides (20 nM) on streptavidin biosensors, varying concentrations of Fab in solution; 50 mM Hepes pH 8.0, 150 mM NaCl, 0.05% Tween-20, 0.2% BSA; association 120 s, dissociation 200 s; global fit to a 1:1 Langmuir model; Octet RED96e; in triplicate.

Assay [6] has as its target ACLYana-1-pTza peptide (AGAG-1-pTza-AGAG). The assay is described as above.
Assay [7] has as its system ACLYana-1-pHis peptide (AGAG-1-pHis-AGAG). Nature of the assay: BLI binding kinetics of 1-pHis Fabs with affinity-purified pHis peptide. The conditions noted are these: for ka / kd / Kd: BLI, 1:1 Langmuir global fit, triplicate; for ka / kd: affinity-purified ACLYana-1-pHis peptide; for Kd: ACLYana phosphorylated with phosphoramidate (8 h, 23 °C), 1-pHis isomer affinity-purified on 1-pHis IgG column, immobilized on streptavidin biosensors, Hepes pH 8.0; for affinity to 1-pHis peptides, times weaker than the 1-pTza peptides: ratio of BLI KD, 1-pHis versus 1-pTza peptide. How it is done: (§1) Biolayer interferometry (BLI) studies were performed to determine the relative affinity of pHis Fabs to in situ phosphorylated His peptides versus the phosphomimetic substrates. The N-terminally biotinylated peptides were immobilized on streptavidin biosensors and the rate of association (ka) and dissociation (kd) were determined by varying the pHis Fab concentration. Equilibrium dissociation constants (KD) were determined by fitting the experimental data to a 1:1 Langmuir binding model. ACLYana-1-pTza and ACLYana-3-pTza peptides were used to determine affinity to 1-pHis and 3-pHis Fabs, respectively (Fig. 3 A–E and Table 1). […] The two isomers were separated from each other by passing the reaction through affinity columns containing 1-pHis mAbs using SC1-1 or SC50-3 IgGs or 3-pHis mAbs using SC39-4, SC44-8, and SC56-2 IgGs. The eluates thus contained either predominantly 1-pHis or 3-pHis peptides. These peptides were used to determine the affinity to their respective isomer class of pHis Fabs (Fig. 3 F–J, Table 1, and SI Appendix, Fig. S5). […] This experimental observation is well supported by the higher number of hydrogen bonds that support the SC44-8:3-pTza interaction compared to other pHis Fabs (SI Appendix, Table S5). […] There are at least three reasons for the lower affinity of the mAbs for pHis peptides compared to pTza peptides: The continuous hydrolysis of phosphate from the pHis peptides during the course of the experiment (SI Appendix, Fig. S6), a reduction in the number of hydrogen bond interactions due to one less nitrogen in the imidazole ring compared to triazolyl ring (Fig. 4 and SI Appendix, Fig. S8), and inherently different electronic properties of the imidazole and triazolyl rings in His and Tza, respectively ([20]).
(§2) Fig. 3. Binding kinetics of pHis Fabs with cognate pTza and pHis peptides. BLI studies of immobilized peptides (ACLYana-1/3-pTza and phosphorylated ACLYana) with varying concentrations of the pHis Fabs were carried out in triplicate on an Octet Red96e instrument (FortéBio). SC1-1 (A) and SC50-3 (B) pHis Fab interaction with their ACLYana-1-pTza peptides. SC39-4 (C), SC44-8 (D), and SC56-2 (E) pHis Fabs interactions with ACLYana-3-pTza peptides. SC1-1 (F), SC50-3 (G), SC39-4 (H), SC44-8 (I), and SC56-2 (J) pHis Fabs interactions with their affinity-purified ACLYana-pHis peptides are represented, Right. The experimental data are represented in the black dashed lines and the nonlinear least-squares fitting was represented in the red continuous lines. The χ^2 for the goodness of fit is under 1.0 for the all the plots.
(§3) The binding kinetics of pHis Fabs with the peptides (pTza and pHis) were evaluated with an Octet RED96e (FortéBio). Streptavidin-coated biosensors (FortéBio) were presoaked in buffer containing 50 mM Hepes pH 8.0, 150 mM NaCl, 0.05% Tween-20, and 0.2% BSA for 15 min. The biotinylated pTza peptides or pHis peptides (20 nM) with and without phosphoramidate treatment were coated onto these streptavidin biosensors and analyzed for their binding to varying concentrations of the pHis Fabs with an association time of 120 s and dissociation time of 200 s. The entire set of experiments was repeated three times. The data were analyzed using the Octet software (FortéBio) and the rates of association and dissociation were obtained by global fitting data to the 1:1 Langmuir interaction model.
Supplementary methods and materials
Peptide Synthesis. Peptides used for the crystallization were synthesized at Sanofi as described in Fuhs et al. (1). Peptides used in the DSF and BLI experiments were synthesized by the Salk Peptide Synthesis Core. These peptides were N-terminally biotinylated and C-terminally amidated. They were synthesized using standard Fmoc chemistry on a Gyros Protein Technologies Tribute peptide synthesizer with UV monitoring. Following the deprotection, peptides were analyzed by mass spectrometry and analytical HPLC by the Proteomics Core at […]
Salk. […]

Assay [8] addresses ACLYana-1-pTza peptide (AGAG-1-pTza-AGAG). Description: BLI binding kinetics of 1-pHis Fabs with cognate pTza peptide. The conditions noted are these: triplicate; for Kd: BLI Octet RED96e, N-terminally biotinylated peptide (20 nM) on streptavidin biosensors, varying Fab concentration, 50 mM Hepes pH 8.0, 150 mM NaCl, 0.05% Tween-20, 0.2% BSA, association 120 s, dissociation 200 s, global fit 1:1 Langmuir; for ka / kd: BLI, immobilized biotinylated ACLYana-1-pTza, 1:1 Langmuir global fit. The procedure: as §1, §2, §3

From PMC8017925, “Structural basis for differential recognition of phosphohistidine-containing peptides by 1-pHis and 3-pHis monoclonal antibodies” (Proceedings of the National Academy of Sciences of the …, 2021) come the findings set out here.

B1: SC50-3 Fab (Fab, V domains shown)
VH: QSVKESEGGLFKPTDTLTLTCTASGFSLNGYGVIWVRQAPGKGLEWIGSAGAYGRIYYPNWARSRATITRNTNLNTVSLKMTSLTAADTATYFCARRTNVSTSVGFDSWGPGTLVTVSS
VL: DMTQTPSSKSVPVGDTVTINCQASESVYSNNRLSWFQQKPGQPPKLLIYLVSTLASGVPSRFKGSGSGTQFTLTISDVVCDDAATYYCVGYKSSTTDGLAFGGGTEVVVK
Regarding B1, the Kd in assay [1] was determined as 411 nM; in assay [2], 362 nM; in assay [3], 336 nM; in assay [4], 194 nM. For the same molecule, the koff in assay [1] came out at 0.0147 s⁻¹; in assay [2] it was 0.0176 s⁻¹; in assay [3], 0.0243 s⁻¹; in assay [4], 0.0247 s⁻¹. In addition, the association rate constant (kon) came out at 35800 M⁻¹ s⁻¹ in assay [1], 48500 M⁻¹ s⁻¹ in assay [2], 72200 M⁻¹ s⁻¹ in assay [3] and 127000 M⁻¹ s⁻¹ in assay [4].

B2: SC1-1 Fab (Fab, V domains shown)
VH: QSVEESEGGLFKPTDTLTLTCTASGFSLSGHGVIWVRQAPGKGLEWIGSAGAYGRIYYASWAKSRSTITRNTNLNTVTLKMTSLTAADTATYFCARRSDVGTSVGFDSWGPGTLVTISS
VL: B1 VL
In assay [5], B2 yielded a Kd of 95.1 nM, an off-rate constant (koff) of 0.00925 s⁻¹ and a kon of 97300 M⁻¹ s⁻¹. In assay [6], this molecule yielded a Kd of 24.8 nM, an off-rate constant (koff) of 0.00199 s⁻¹ and a kon of 81300 M⁻¹ s⁻¹.

B3: SC50-3 Fab (SC50-3 heavy chain with SC1-1 light chain) (Fab, V domains shown)
VH: B1 VH
VL: B1 VL
Consider B3, for which, in assay [5], the equilibrium dissociation constant (Kd) is 28.3 nM, the koff is 0.00494 s⁻¹ and the kon came to 175000 M⁻¹ s⁻¹. In addition, in assay [6], the equilibrium dissociation constant (Kd) is 16 nM, the dissociation rate constant (koff) came out at 0.00136 s⁻¹ and the on-rate (kon) came out at 85100 M⁻¹ s⁻¹.

B4: SC50-3: Fab of rabbit 1-pHis monoclonal antibody, expressed with SC50-3 heavy chain and SC1-1 light chain (antibody, V domains shown)
VH: B1 VH
VL: B1 VL
Consider B4, for which, in assay [7], the ka came out at 175000 ± 1010 M⁻¹ s⁻¹; the kd worked out at 0.00494 ± 1.06e-05 s⁻¹; the affinity, expressed as Kd, was 28.3 nM; the “affinity to 1-pHis peptides, times weaker than the 1-pTza peptides” value is “two to four times weaker”. In assay [8], binding was characterised by a dissociation constant (Kd) of 16 nM, the ka came to 85100 ± 303 M⁻¹ s⁻¹ and the kd stood at 0.00136 ± 3.19e-06 s⁻¹.

B5: SC1-1: Fab of rabbit monoclonal antibody that recognizes 1-pHis (antibody, V domains shown)
VH: B2 VH
VL: B1 VL
For B5, in assay [7], the ka is 97300 ± 551 M⁻¹ s⁻¹; the kd is 0.00925 ± 1.33e-05 s⁻¹; binding was characterised by a dissociation constant (Kd) of 95.1 nM; the “affinity to 1-pHis peptides, times weaker than the 1-pTza peptides” value was “two to four times weaker”. In assay [8], this molecule displayed a Kd of 24.8 nM, a ka of 81300 ± 347 M⁻¹ s⁻¹ and a kd of 0.00199 ± 3.19e-06 s⁻¹.
